First the molecules themselves.
B1: D domain SEQ ID NO: 857 (designed binder)
chain: MGSWKEFIQRLDAIHYRLWALGGSEAELAAFEKEIAAFESELQAYKGKGNPEVEYLRFVAAFIRFELQAYRHN
B2: D domain SEQ ID NO: 858 (designed binder)
chain: MGSWSEFIFRLDAIHSRLQALGGSEAELAAFEKEIAAFESELQAYKGKGNPEVEYLRFIAAEIRLKLQAYRHN
B3: D domain SEQ ID NO: 887 (designed binder)
chain: MGSWTEFWHRLEAIDSRLWALGGSEAELAAFEKEIAAFESELQAYKGKGNPEVESLREHAAHIRVWLQAYRHN
B4: D domain SEQ ID NO: 891 (designed binder)
chain: MGSWTEFEKRLHAIDYRLWALGGSEAELAAFEKEIAAFESELQAYKGKGNPEVEDLREHAAAIRHWLQAYRHN
B5: D domain SEQ ID NO: 890 (designed binder)
chain: MGSWYEFQQRLEAIDTRLWALGGSEAELAAFEKEIAAFESELQAYKGKGNPEVEELREHAAHIRHWLQAYRHN
B6: D domain SEQ ID NO: 880 (designed binder)
chain: MGSWVEFHYRLQAIDARLWALGGSEAELAAFEKEIAAFESELQAYKGKGNPEVEELRVHAAHIRKWLQAYRHN
B7: D domain SEQ ID NO: 876 (designed binder)
chain: MGSWFEFYERLNAIDSRLWALGGSEAELAAFEKEIAAFESELQAYKGKGNPEVEKLRAHAASIRTWLQAYRHN
B8: D domain SEQ ID NO: 868 (designed binder)
chain: MGSWLEFYHRLNAIDSRLWALGGSEAELAAFEKEIAAFESELQAYKGKGNPEVESLRDHAAHIREWLQAYRHN
B9: D domain SEQ ID NO: 896 (designed binder)
chain: MGSWVEFVSRLYAIDFRLWALGGSEAELAAFEKEIAAFESELQAYKGKGNPEVEALREHAAQIRDWLQAYRHN
B10: D domain SEQ ID NO: 885 (designed binder)
chain: MGSWYEFYLRLDAIDHRLWALGGSEAELAAFEKEIAAFESELQAYKGKGNPEVEMLREHAAHIRKWLQAYRHN
B11: D domain SEQ ID NO: 894 (designed binder)
chain: MGSWTEFVNRLYAIDSRLWALGGSEAELAAFEKEIAAFESELQAYKGKGNPEVEGLRTHAAKIRHWLQAYRHN
B12: D domain SEQ ID NO: 889 (designed binder)
chain: MGSWSEFFKRLEAIDRRLWALGGSEAELAAFEKEIAAFESELQAYKGKGNPEVEELREHAAHIRVWLQAYRHN
B13: D domain SEQ ID NO: 879 (designed binder)
chain: MGSWEEFYYRLEAIDARLFALGGSEAELAAFEKEIAAFESELQAYKGKGNPEVEELRVHAAHIRDWLQAYRHN
B14: D domain SEQ ID NO: 877 (designed binder)
chain: MGSWIEFYWRLEAIDQRLWALGGSEAELAAFEKEIAAFESELQAYKGKGNPEVEDLRVHAAAIRWWLQAYRHN
B15: D domain SEQ ID NO: 878 (designed binder)
chain: MGSWSEFVKRLDAIDQRLWALGGSEAELAAFEKEIAAFESELQAYKGKGNPEVESLRVHAAAIRAWLQAYRHN
B16: D domain SEQ ID NO: 888 (designed binder)
chain: MGSWTEFQNRLNAIDHRLWALGGSEAELAAFEKEIAAFESELQAYKGKGNPEVESLREHAAKIRVWLQAYRHN
B17: D domain SEQ ID NO: 893 (designed binder)
chain: MGSWLEFSQRLTAIDSRLWALGGSEAELAAFEKEIAAFESELQAYKGKGNPEVENLREHAAKIRNWLQAYRHN
B18: D domain SEQ ID NO: 886 (designed binder)
chain: MGSWYEFRARLLAIDERLWALGGSEAELAAFEKEIAAFESELQAYKGKGNPEVEHLREHAAHIRNFLQAYRHN
B19: D domain SEQ ID NO: 859 (designed binder)
chain: MGSWFEFYDRLNAIDARLWALGGSEAELAAFEKEIAAFESELQAYKGKGNPEVENLRVHAAAIREWLQAYRHN
B20: D domain SEQ ID NO: 892 (designed binder)
chain: MGSWTEFHQRLDAIDERLWALGGSEAELAAFEKEIAAFESELQAYKGKGNPEVEFLREHAAKIRMWLQAYRHN
B21: D domain SEQ ID NO: 883 (designed binder)
chain: MGSWNEFFQRLNAIDERLWALGGSEAELAAFEKEIAAFESELQAYKGKGNPEVEDLRQHAANIRWWLQAYRHN
B22: D domain SEQ ID NO: 882 (designed binder)
chain: MGSWNEFMDRLNAIDNRLWALGGSEAELAAFEKEIAAFESELQAYKGKGNPEVENLRKQAASIRLWLQAYRHN
B23: D domain SEQ ID NO: 881 (designed binder)
chain: MGSWVEFVGRLNAIDARLWALGGSEAELAAFEKEIAAFESELQAYKGKGNPEVEELRHHAAEIRNWLQAYRHN
B24: D domain SEQ ID NO: 884 (designed binder)
chain: MGSWYEFVVRLFAIDERLWALGGSEAELAAFEKEIAAFESELQAYKGKGNPEVESLREHAAHIRSWLQAYRHN
B25: D domain SEQ ID NO: 895 (designed binder)
chain: MGSWMEFVDRLSAIDRRLWALGGSEAELAAFEKEIAAFESELQAYKGKGNPEVEVLREHAANIRQWLQAYRHN
B26: D domain SEQ ID NO: 854 (designed binder)
chain: MGSWVEFSGRLIAIDNRLWALGGSEAELAAFEKEIAAFESELQAYKGKGNPEVEYLRMWAAEIRYILQAYRHN
B27: D domain SEQ ID NO: 856 (designed binder)
chain: MGSWHEFMERLIAIDGRLWALGGSEAELAAFEKEIAAFESELQAYKGKGNPEVEYLRFVAAFIRDVLQAYRHN
B28: D domain SEQ ID NO: 855 (designed binder)
chain: MGSWVEFHHRLFAIDERLWALGGSEAELAAFEKEIAAFESELQAYKGKGNPEVEYLRMVAAEIRYILQAYRHN
B29: D domain SEQ ID NO: 853 (designed binder)
chain: MGSWMEFFDRLVAIDERLWALGGSEAELAAFEKEIAAFESELQAYKGKGNPEVEYLRMWAAEIRFLLQAYRHN
B30: D domain SEQ ID NO: 852 (designed binder)
chain: MGSWHEFITRLEAIDQRLWALGGSEAELAAFEKEIAAFESELQAYKGKGNPEVEYLRFWAAEIRFILQAYRHN
B31: D domain SEQ ID NO: 851 (designed binder)
chain: MGSWHEFYDRLDAIYFRLWALGGSEAELAAFEKEIAAFESELQAYKGKGNPEVELLRLLAAEIRKELQAYRHN
B32: D-domain SEQ ID NO: 98 (designed binder)
chain: MGSWSEFRGRLQAIHSRLNALGGSEAELAAFEKEIAAFESELQAYKGKGNPEVEELRYSAAIIRIYLQAYRHN
B33: D-domain SEQ ID NO: 77 (designed binder)
chain: MGSWYEFQVRLQAISWRLKALGGSEAELAAFEKEIAAFESELQAYKGKGNHEVEELRIQAALIRVMLQAYRHN
B34: D-domain SEQ ID NO: 102 (designed binder)
chain: MGSWVEFYDRLAAIRKRLYALGGSEAELAAFEKEIAAFESELQAYKGKGNPEVEELRFRAALIRIWLQAYRHN
B35: D-domain SEQ ID NO: 108 (designed binder)
chain: MGSWSEFQQRLHAIRTRLYALGGSEAELAAFEKEIAAFESELQAYKGKGNPEVEELRFEAAIIRVMLQAYRHN
B36: D-domain SEQ ID NO: 109 (designed binder)
chain: MGSWYEFQNRLGAINRRLNALGGSEAELAAFEKEIAAFESELQAYKGKGNPEVEELRFEAAIIRVMLQAYRHN
B37: D-domain SEQ ID NO: 110 (designed binder)
chain: MGSWQEFTGRLHAIRHRLEALGGSEAELAAFEKEIAAFESELQAYKGKGNPEVEELRFEAAYIRVWLQAYRHN
B38: D-domain SEQ ID NO: 105 (designed binder)
chain: MGSWIEFSHRLEAIVDRLGALGGSEAELAAFEKEIAAFESELQAYKGKGNPEVEELRNTAAIIRVYLQAYRHN
B39: D-domain SEQ ID NO: 106 (designed binder)
chain: MGSWEEFSDRLEAILRRLDALGGSEAELAAFEKEIAAFESELQAYKGKGNPEVEDLRFAAAIIRVQLQAYRHN
B40: D-domain SEQ ID NO: 107 (designed binder)
chain: MGSWMEFSHRLDAIHERLYALGGSEAELAAFEKEIAAFESELQAYKGKGNPEVEDLRFAAAIIRVQLQAYRHN

The target of the first assay is T1, P26 (human, UniProt P02771 381-609, limits assumed).
T1 construct: also called AFP p26
T1 sequence: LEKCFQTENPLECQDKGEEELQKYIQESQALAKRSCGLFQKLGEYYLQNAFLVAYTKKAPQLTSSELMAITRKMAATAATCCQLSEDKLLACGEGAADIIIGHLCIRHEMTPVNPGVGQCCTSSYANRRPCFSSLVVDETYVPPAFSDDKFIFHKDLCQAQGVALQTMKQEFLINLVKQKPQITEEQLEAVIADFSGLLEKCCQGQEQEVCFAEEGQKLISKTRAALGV
Put plainly: ELISA, format not described. Also noted: unit not given here. Background: In an ELISA, binding on a coated surface is turned into a signal by an enzyme label.
B1 showed an ELISA_avg of 18.4.
On to B2, for which the ELISA_avg was determined as 28.3.
The same measure, in the same setting: in the case of B3 it was 13.2; in that of B4, 17.1; in that of B5, 27.3.
Same read-out and setting: in the case of B6 it was 14.8; in that of B7, 27.1.
Same read-out and setting: in the case of B8 it was 19.2; in that of B9, 29; in that of B10, 16.
B11 returned an ELISA_avg of 16.7.
The same measure, in the same setting: in the case of B12 it was 30.2; in that of B13, 30.3; in that of B14, 9.4.
Same read-out and setting: in the case of B15 it was 27; in that of B16, 30.5; in that of B17, 30.4.
The same measure, in the same setting: in the case of B18 it was 20.9; in that of B19, 5.92.
B20 yielded an ELISA_avg of 24.4.
Still for that read-out and setting: for B21 the value was 28.7; for B22, 10; for B23, 26.
Still for that read-out and setting: for B24 the value was 18.2; for B25, 32.1; for B26, 5.28.
In the case of B27, the ELISA_avg came to 17.9.
The same measure, in the same setting: for B28 the value was 21.4.
In turn, B29 showed an ELISA_avg of 18.6.
The same measure, in the same setting: for B30 the value was 16.9; for B31, 9.6.

The next assay concerns the target T2, BCMA (Homo sapiens (Human), UniProt Q02223 1-54, limits assumed).
T2 sequence: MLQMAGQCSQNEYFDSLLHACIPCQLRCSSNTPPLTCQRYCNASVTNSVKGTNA
Nature of the assay: ELISA, format not described. Also noted: unit not given here.
On to B32, for which the ELISA_avg stood at 7.58.
Same read-out and setting: for B33 the value was 14.2.
Same read-out and setting: for B34 the value was 9.76; for B35, 11.6; for B36, 4.68.
Still for that read-out and setting: in the case of B37 it was 3.31.
In the case of B38, the ELISA_avg worked out at 18.7.
The same measure, in the same setting: for B39 the value was 9.08; for B40, 6.3.
